Laboratory results as given in patent publication US8088892B2, “Inhibitors of proteins from the Rho-GEF family” (Centre National de la Recherche Scientifique (C.N.R.S.), priority 2002, dated 2012).
Entries after “also recorded” stand apart in the source; their conditions may differ.

What was measured:
[1] = molecular target: T1, TrioGEFD2 (DH2PH2, amino acids 1848-2298) (Homo sapiens, UniProt O75962); experiment: Binding specificity of aptamers in yeast (two-hybrid, growth on selective medium); parameters: key to Binding in yeast: +++^1 and +^1 represent respectively a full and a partial (see FIG. 1) binding capacity; +++^1 and +^1 represent respectively a full and a partial (see FIG. 1) binding capacity; −−^1 represents a lack of binding
T1 construct: TrioGEFD2 (DH2PH2, amino acids 1848-2298); expressed in transfected cells; host or cells: yeast strain EGY048
Text: (§1) Trx represents the thioredoxin protein with no inserted peptide.
In order to identify specific inhibitors of TrioGEFD2, a recently developed strategy was used, this strategy being derived from the yeast two hybrid system, where the cDNA library of preys has been replaced by a combinatorial library of short peptides (20 amino acids) in fusion with the bacterial protein thioredoxin A (Colas et al., 1996). This strategy has been successfully used to isolate specific inhibitors of the cyclin-dependent kinases (Cdks), the cell cycle transcription factor E2F, or the viral HPV16 E6 oncoprotein and HBEV core protein (Colas et al., 1996; Butz et al., 2001; Fabrizzio et al., 1999; Geyer et al., 2000). The TrioGEFD2 bait was constructed as follows: plasmid pMTHATrio1848-2298 (Bellanger et al., 1998) was digested with EcoRI/XhoI and the insert cloned in pEG202EcoRI/XhoI to generate the bait pEG202TroGEFD2. Yeast strain EGY048 (Colas et al., 1996) was transformed with pEG202TrioGEFD2 and subsequently with the library of Thioredoxin constrained aptamers according to standard procedures (Ito et al., 1983). After transformation, cells were allowed to recover for 4 hours in galactose containing medium before plating on selective galactose medium. Of the 2×10^6 screened colonies, those growing in the selective medium were recovered and retested for interaction. […]

PDZRhoGEF = experiment: Binding specificity of aptamers in yeast; parameters: key: +++^1 and +^1 represent respectively a full and a partial (see FIG. 1) binding capacity; +++^1 and +^1 represent respectively a full and a partial (see FIG. 1) binding capacity; −−^1 represents a lack of binding; details: RhoGEF PDZRhoGEF
Text: as §1
(§2) In order to identify specific inhibitors of TrioGEFD2, a recently developed strategy was used, this strategy being derived from the yeast two hybrid system, where the cDNA library of preys has been replaced by a combinatorial library of short peptides (20 amino acids) in fusion with the bacterial protein thioredoxin A (Colas et al., 1996). This strategy has been successfully used to isolate specific inhibitors of the cyclin-dependent kinases (Cdks), the cell cycle transcription factor E2F, or the viral HPV16 E6 oncoprotein and HBEV core protein (Colas et al., 1996; Butz et al., 2001; Fabrizzio et al., 1999; Geyer et al., 2000). The TrioGEFD2 bait was constructed as follows: plasmid pMTHATrio1848-2298 (Bellanger et al., 1998) was digested with EcoRI/XhoI and the insert cloned in pEG202EcoRI/XhoI to generate the bait pEG202TroGEFD2. Yeast strain EGY048 (Colas et al., 1996) was transformed with pEG202TrioGEFD2 and subsequently with the library of Thioredoxin constrained aptamers according to standard procedures (Ito et al., 1983). After transformation, cells were allowed to recover for 4 hours in galactose containing medium before plating on selective galactose medium. Of the 2×10^6 screened colonies, those growing in the selective medium were recovered and retested for interaction. […] Binding specificity was investigated by screening for interaction with the following baits: TrioDH2 (a.a. 1848-2096), TrioPH2 (a.a. 2107-2223), TrioGEFD1 (a.a. 1232-1629), Dbl (a.a. 498-826), Vav (ala. 172-598) (Zhang et al, 1994), GEFD2 domain of Kalirin (a.a. 1640-1980)(Penzes et al., 2001), p115RhoGEF (a.a. 391-870)(Wells et al, 2002) and PDZRhoGEF (a.a. 964-1362) (Fukuhara et al., 1999). None of these aptamers interacted with other RhoGEF members such as Dbl, Vav, and the RhoA-specific GEFs p115RhoGEF and PDZRhoGEF.

Dbl = molecular target: T2, Dbl (Homo sapiens, UniProt P10911); experiment: Binding specificity of aptamers in yeast; parameters: key: +++^1 and +^1 represent respectively a full and a partial (see FIG. 1) binding capacity; +++^1 and +^1 represent respectively a full and a partial (see FIG. 1) binding capacity; −−^1 represents a lack of binding; details: RhoGEF Dbl
T2 construct: Dbl (a.a. 498-826); expressed in transfected cells; host or cells: yeast
T2 sequence (P10911 498-826): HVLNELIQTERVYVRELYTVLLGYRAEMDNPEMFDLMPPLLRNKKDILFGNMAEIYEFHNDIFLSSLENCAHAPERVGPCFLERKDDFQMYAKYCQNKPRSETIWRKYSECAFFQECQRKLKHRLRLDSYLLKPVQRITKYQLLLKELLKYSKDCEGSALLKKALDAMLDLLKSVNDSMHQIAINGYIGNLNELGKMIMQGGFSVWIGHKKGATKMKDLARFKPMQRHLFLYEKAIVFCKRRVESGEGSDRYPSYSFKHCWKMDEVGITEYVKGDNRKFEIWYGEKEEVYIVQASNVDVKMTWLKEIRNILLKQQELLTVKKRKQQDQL
Text: as §1, §2

p115RhoGEF = molecular target: T3, p115RhoGEF (Homo sapiens, UniProt Q92888); experiment: Binding specificity of aptamers in yeast; parameters: key: +++^1 and +^1 represent respectively a full and a partial (see FIG. 1) binding capacity; +++^1 and +^1 represent respectively a full and a partial (see FIG. 1) binding capacity; −−^1 represents a lack of binding; details: RhoGEF p115RhoGEF
T3 construct: p115RhoGEF (a.a. 391-870); expressed in transfected cells; host or cells: yeast
T3 sequence (Q92888 391-870): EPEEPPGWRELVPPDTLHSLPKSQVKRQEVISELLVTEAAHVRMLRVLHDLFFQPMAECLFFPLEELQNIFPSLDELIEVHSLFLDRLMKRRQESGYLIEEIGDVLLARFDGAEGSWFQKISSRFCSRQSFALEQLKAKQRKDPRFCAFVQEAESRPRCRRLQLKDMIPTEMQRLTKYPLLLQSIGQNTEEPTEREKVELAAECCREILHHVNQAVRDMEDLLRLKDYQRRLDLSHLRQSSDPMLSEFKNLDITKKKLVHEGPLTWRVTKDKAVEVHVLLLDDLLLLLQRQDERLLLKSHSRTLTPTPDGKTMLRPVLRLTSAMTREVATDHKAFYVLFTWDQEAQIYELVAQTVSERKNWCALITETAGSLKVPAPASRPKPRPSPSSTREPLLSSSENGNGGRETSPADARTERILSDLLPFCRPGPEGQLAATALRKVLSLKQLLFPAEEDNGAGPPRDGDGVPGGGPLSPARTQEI
Text: as §1, §2

GEFD2 domain of Kalirin = molecular target: T4, GEFD2 domain of Kalirin (Rattus norvegicus, UniProt P97924); experiment: Binding specificity of aptamers in yeast; parameters: key to Binding in yeast: +++^1 and +^1 represent respectively a full and a partial (see FIG. 1) binding capacity; +++^1 and +^1 represent respectively a full and a partial (see FIG. 1) binding capacity; −−^1 represents a lack of binding
T4 construct: GEFD2 domain of Kalirin (a.a. 1640-1980); expressed in transfected cells; host or cells: yeast
Text: as §1, §2

TrioDH2PH2L2051E = molecular target: T5, TrioDH2PH2L2051E (Homo sapiens, UniProt O75962, L2110E); experiment: Binding specificity of aptamers in yeast; parameters: key: +++^1 and +^1 represent respectively a full and a partial (see FIG. 1) binding capacity; +++^1 and +^1 represent respectively a full and a partial (see FIG. 1) binding capacity; −−^1 represents a lack of binding; details: RhoGEF TrioDH2PH2L2051E
T5 construct: TrioGEFD2 (DH2PH2, amino acids 1848-2298); expressed in transfected cells; host or cells: yeast

Binding in yeast ([1]; RhoGEF TrioDH2PH2): +++^1
Binding to TrioGEFD2 (DH2PH2) in yeast ([1]; growth on selective medium): binding to TrioGEFD2
Binding in yeast (PDZRhoGEF): −−^1
Binding in yeast (Dbl): −−^1
Binding in yeast (p115RhoGEF): −−^1
Binding in yeast (GEFD2 domain of Kalirin; RhoGEF KalirinDH2PH2): +^1
Binding in yeast (TrioDH2PH2L2051E): +++^1
B1: TRIAPα: aptamer of 154 amino acids: variable region of 42 amino acids inserted into the thioredoxin protein; tested as GST fusion (protein)
chain: MSDKIIHLTDDSFDTDVLKADGAILVDFWAEWCGPAREGADGAICGYNLATLVMLGPSERVFCPLCEPCSSDIYELMGPCKMIAPILDEIADEYQGKLTVAKLNIDQNPGTAPKYGIRGIPTLLLFKNGEVASATKVGALSKGQLKEFLDANLA
Binding to the second RhoGEF domain of Kalirin in yeast (GEFD2 domain of Kalirin; growth on selective medium): weakly interacts; also recorded: interacted weakly
